Test results: US20220332789A1 (COMBIKINE BIOTECHNOLOGY, published 2022)
Values belong to the binder of their own block, whether it stands above or below them.

What was measured:
[1] = biological target: IgE (NIP IgE, AbD Serotec) (Homo sapiens (Human)), P01854; test: cell-based or functional assay
IgE-Fc [2] = biological target: T1, IgE-Fc (UniProt P01854-1 104-428, limits assumed); test: flow cytometry competition: 1 nM IgE-Fc-A488 binding to FcεRI on RBL SX-38 cells
T1 construct: domain: IgE-Fc; In SPR it was captured on the chip by the α-Cε4 Fab; also called α-Cε4 Fab captured IgE-Fc; IgE-Fc-A488
T1 sequence (P01854 other isoform, or with tags, fused parts or gaps limits assumed): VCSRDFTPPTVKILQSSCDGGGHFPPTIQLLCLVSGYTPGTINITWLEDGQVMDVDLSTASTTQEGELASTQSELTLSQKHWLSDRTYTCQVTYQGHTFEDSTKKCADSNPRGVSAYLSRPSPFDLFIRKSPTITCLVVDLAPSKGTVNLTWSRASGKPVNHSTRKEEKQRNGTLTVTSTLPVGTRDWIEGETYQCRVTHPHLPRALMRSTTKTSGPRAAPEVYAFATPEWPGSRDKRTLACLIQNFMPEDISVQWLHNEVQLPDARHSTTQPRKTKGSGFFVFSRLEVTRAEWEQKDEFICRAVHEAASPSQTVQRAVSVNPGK

IgE-Fc [3] = biological target: T1, IgE-Fc; test: SPR (Biacore), steady state analysis, one-to-one binding model, derCD23 0-4 µM over α-Cε4 Fab captured IgE-Fc
Protocol: (§1) An α-Cε4 Fab CM5 sensor surface was prepared using amine-coupling and a mock amine-coupled surface was used as a reference-subtraction control. […] Injections were performed at a flow rate of 25 μl·min⁻¹ in a running buffer of 10 mM HEPES, pH 7.4, 150 mM NaCl, 4 mM CaCl₂, and 0.005% (v/v) surfactant P-20 (GE Healthcare).

IgE-Fc [4] = biological target: T1, IgE-Fc; test: SPR (Biacore T200), monophasic kinetic fitting, derCD23 4000 nM to 31 nM over α-Cε4 Fab captured IgE-Fc, pH 7.4, 4 mM CaCl2
Protocol: as §1

Sequence of IgE (NIP IgE, AbD Serotec) (Homo sapiens (Human)), P01854 (P01854 other isoform, or with tags, fused parts or gaps limits assumed): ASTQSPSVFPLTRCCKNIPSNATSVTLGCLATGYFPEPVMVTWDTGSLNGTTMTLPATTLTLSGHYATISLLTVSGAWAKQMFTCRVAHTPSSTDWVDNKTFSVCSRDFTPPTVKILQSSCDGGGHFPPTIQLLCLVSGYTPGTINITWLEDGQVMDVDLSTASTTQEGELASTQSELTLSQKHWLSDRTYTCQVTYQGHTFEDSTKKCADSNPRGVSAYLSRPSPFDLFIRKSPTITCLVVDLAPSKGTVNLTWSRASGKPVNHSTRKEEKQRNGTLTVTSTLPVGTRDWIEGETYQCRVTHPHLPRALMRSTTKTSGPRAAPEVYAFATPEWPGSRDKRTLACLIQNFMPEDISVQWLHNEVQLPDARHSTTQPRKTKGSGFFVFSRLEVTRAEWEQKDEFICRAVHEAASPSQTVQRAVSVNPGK

Extracellular supernatant (IgE remaining prior to buffer change), 1 nM IgE with 0.01 nM biologic, percentage of IgE [1]: 7% | Extracellular supernatant (IgE remaining prior to buffer change), 1 nM IgE with 0.05 nM biologic, percentage of IgE [1]: 4.5% | Extracellular supernatant (IgE remaining prior to buffer change), 1 nM IgE with 0.5 nM biologic, percentage of IgE [1]: 1% | Extracellular supernatant (IgE remaining), 1 nM IgE with 0.01 nM biologic, percentage of IgE [1]: 8% | Extracellular supernatant (IgE remaining), 1 nM IgE with 0.05 nM biologic, percentage of IgE [1]: 5% | Extracellular supernatant (IgE remaining), 1 nM IgE with 0.5 nM biologic, percentage of IgE [1]: 1% | IC50 of inhibition of IgE mediated degranulation [1]: 10 to 30 nM | IgE Intracellular retention, 1 nM IgE with 0.01 nM biologic, percentage of IgE [1]: 92% | IgE Intracellular retention, 1 nM IgE with 0.05 nM biologic, percentage of IgE [1]: 94% | IgE Intracellular retention, 1 nM IgE with 0.5 nM biologic, percentage of IgE [1]: 98% | IgE Intracellular retention, 1 nM IgE with 1 nM biologic, percentage of IgE [1]: 95% | IgE Intracellular retention, 1 nM IgE with 5 nM biologic, percentage of IgE [1]: 93% | IgE Intracellular retention, 1 nM IgE with 50 nM biologic, percentage of IgE [1]: 90% | IgE Intracellular retention, 1 nM IgE with 500 nM biologic, percentage of IgE [1]: 79% | IgE Intracellular retention, 1 nM IgE with 1000 nM biologic, percentage of IgE [1]: 65% | IgE Intracellular retention, 1 nM IgE with 2000 nM biologic, percentage of IgE [1]: 52% | IgE Uptake, 1 nM IgE with 0.01 nM biologic, percentage of IgE [1]: 92% | IgE Uptake, 1 nM IgE with 0.05 nM biologic, percentage of IgE [1]: 95% | IgE Uptake, 1 nM IgE with 0.5 nM biologic, percentage of IgE [1]: 99% | IgE Uptake, 1 nM IgE with 1 nM biologic, percentage of IgE [1]: 100% | IgE Uptake, 1 nM IgE with 5 nM biologic, percentage of IgE [1]: 100% | IgE Uptake, 1 nM IgE with 50 nM biologic, percentage of IgE [1]: 100% | IgE Uptake, 1 nM IgE with 500 nM biologic, percentage of IgE [1]: 100% | IgE Uptake, 1 nM IgE with 1000 nM biologic, percentage of IgE [1]: 100% | IgE Uptake, 1 nM IgE with 2000 nM biologic, percentage of IgE [1]: 100% | efficacy of inhibition of IgE mediated degranulation of basophils [1]: 90%
B1: hCD23-G4S3-mIgG2a Fc (Fc fusion)
chain: EASDLLERLREEVTKLRMELQVSSGFVCNTCPEKWINFQRKCYYFGKGTKQWVHARYACDDMEGQLVSIHSPEEQDFLTKHASHTGSWIGLRNLDLKGEFIWVDGSHVDYSNWAPGEPTSRSQGEDCVMMRGSGRWNDAFCDRKLGAWVCDRLATCTPPASEGSAESMGPDSRPDPDGRLPTPSAPLHSGGGGSGGGGSGGGGSASISAMVRSPRGPTIKPCPPCKCPAPNLEGGPSVFIFPPKIKDVLMISLSPIVTCVVVDVSEDDPDVQISWFVNNVEVHTAQTQTHREDYNSTLRVVSALPIQHQDWMSGKAFACAVNNKDLPAPIERTISKPKGSVRAPQVYVLPPPEEEMTKKQVTLTCMVTDFMPEDIYVEWTNNGKTELNYKNTEPVLDSDGSYFMYSKLRVEKKNWVERNSYSCSVVHEGLHNHHTTKSFSRTPGK
modifications: here or on the partner: In the flow-cytometry assays the IgE carried AlexaFluor-488 dye at unspecified positions. The letters do not show this.

IC50 (read off the curve) (IgE-Fc [2]): ~10 nM
B2: hCD23-G4S3-mIgG2a Fc (Fc fusion)
chain: EASDLLERLREEVTKLRMELQVSSGFVCNTCPEKWINFQRKCYYFGKGTKQWVHARYACDDMEGQLVSIHSPEEQDFLTKHASHTGSWIGLRNLDLKGEFIWVDGSHVDYSNWAPGEPTSRSQGEDCVMMRGSGRWNDAFCDRKLGAWVCDRLATCTPPASEGSAESMGPDSRPDPDGRLPTPSAPLHSGGGGSGGGGSGGGGSASISAMVRSPRGPTIKPCPPCKCPAPNLEGGPSVFIFPPKIKDVLMISLSPIVTCVVVDVSEDDPDVQISWFVNNVEVHTAQTQTHREDYNSTLRVVSALPIQHQDWMSGKAFACAVNNKDLPAPIERTISKPKGSVRAPQVYVLPPPEEEMTKKQVTLTCMVTDFMPEDIYVEWTNNGKTELNYKNTEPVLDSDGSYFMYSKLRVEKKNWVERNSYSCSVVHEGLHNHHTTKSFSRTPGK
notes: It has two CD23 monomers, paired through the IgG Fc; also called anti-IgE^3; IgE^3

Kd (IgE-Fc [3]): 1820 nM | Kd (IgE-Fc [4]): 1800 nM
B7: derCD23 (receptor)
chain: SGFVCNTCPEKWINFQRKCYYFGKGTKQWVHARYACDDMEGQLVSIHSPEEQDFLTKHASHTGSWIGLRNLDLKGEFIWVDGSHVDYSNWAPGEPTSRSQGEDCVMMRGSGRWNDAFCDRKLGAWVCDRLATCTPPASEGSAE
notes: also called derCD23 monomer; CD23 monomer

The remaining lines, values behind:

B3: anti-IgE^0 (Fc fusion)
chain: EASDLLERLREEVTKLRMELQVSSGFVCNTCPEKWINFQRKCYYFGKGTKQWVHARYACDDMEGQLVSIHSPEEQDFLTKHASHTGSWIGLRNLDLKGEFIWVDGSHVDYSNWAPGEPTSRSQGEDCVMMRGSGRWNDAFCDRKLGAWVCDRLATCTPPASEGSAESMGPDSRPDPDGRLPTPSAPLHSASISAMVRSPRGPTIKPCPPCKCPAPNLEGGPSVFIFPPKIKDVLMISLSPIVTCVVVDVSEDDPDVQISWFVNNVEVHTAQTQTHREDYNSTLRVVSALPIQHQDWMSGKAFACAVNNKDLPAPIERTISKPKGSVRAPQVYVLPPPEEEMTKKQVTLTCMVTDFMPEDIYVEWTNNGKTELNYKNTEPVLDSDGSYFMYSKLRVEKKNWVERNSYSCSVVHEGLHNHHTTKSFSRTPGK
modifications: here or on the partner: In the flow-cytometry assays the IgE carried AlexaFluor-488 dye at unspecified positions. The letters do not show this.
IC50 of inhibition of IgE mediated degranulation [1]: > 300 nM | maximal efficacy of inhibition of IgE mediated degranulation of basophils [1]: 50%

B4: anti-IgE^0 (Fc fusion)
chain: EASDLLERLREEVTKLRMELQVSSGFVCNTCPEKWINFQRKCYYFGKGTKQWVHARYACDDMEGQLVSIHSPEEQDFLTKHASHTGSWIGLRNLDLKGEFIWVDGSHVDYSNWAPGEPTSRSQGEDCVMMRGSGRWNDAFCDRKLGAWVCDRLATCTPPASEGSAESMGPDSRPDPDGRLPTPSAPLHSASISAMVRSPRGPTIKPCPPCKCPAPNLEGGPSVFIFPPKIKDVLMISLSPIVTCVVVDVSEDDPDVQISWFVNNVEVHTAQTQTHREDYNSTLRVVSALPIQHQDWMSGKAFACAVNNKDLPAPIERTISKPKGSVRAPQVYVLPPPEEEMTKKQVTLTCMVTDFMPEDIYVEWTNNGKTELNYKNTEPVLDSDGSYFMYSKLRVEKKNWVERNSYSCSVVHEGLHNHHTTKSFSRTPGK
notes: also called biologic anti-IgE^0
IC50 (read off the curve) (IgE-Fc [2]): ~30 nM

B5: anti-IgE^4 (Fc fusion)
chain: EASDLLERLREEVTKLRMELQVSSGFVCNTCPEKWINFQRKCYYFGKGTKQWVHARYACDDMEGQLVSIHSPEEQDFLTKHASHTGSWIGLRNLDLKGEFIWVDGSHVDYSNWAPGEPTSRSQGEDCVMMRGSGRWNDAFCDRKLGAWVCDRLATCTPPASEGSAESMGPDSRPDPDGRLPTPSAPLHSGGGGSGGGGSGGGGSGGGGSASISAMVRSPRGPTIKPCPPCKCPAPNLEGGPSVFIFPPKIKDVLMISLSPIVTCVVVDVSEDDPDVQISWFVNNVEVHTAQTQTHREDYNSTLRVVSALPIQHQDWMSGKAFACAVNNKDLPAPIERTISKPKGSVRAPQVYVLPPPEEEMTKKQVTLTCMVTDFMPEDIYVEWTNNGKTELNYKNTEPVLDSDGSYFMYSKLRVEKKNWVERNSYSCSVVHEGLHNHHTTKSFSRTPGK
modifications: here or on the partner: In the flow-cytometry assays the IgE carried AlexaFluor-488 dye at unspecified positions. The letters do not show this.
IC50 of inhibition of IgE mediated degranulation [1]: 10 to 30 nM | efficacy of inhibition of IgE mediated degranulation of basophils [1]: 100%

B6: anti-IgE^4 (Fc fusion)
chain: EASDLLERLREEVTKLRMELQVSSGFVCNTCPEKWINFQRKCYYFGKGTKQWVHARYACDDMEGQLVSIHSPEEQDFLTKHASHTGSWIGLRNLDLKGEFIWVDGSHVDYSNWAPGEPTSRSQGEDCVMMRGSGRWNDAFCDRKLGAWVCDRLATCTPPASEGSAESMGPDSRPDPDGRLPTPSAPLHSGGGGSGGGGSGGGGSGGGGSASISAMVRSPRGPTIKPCPPCKCPAPNLEGGPSVFIFPPKIKDVLMISLSPIVTCVVVDVSEDDPDVQISWFVNNVEVHTAQTQTHREDYNSTLRVVSALPIQHQDWMSGKAFACAVNNKDLPAPIERTISKPKGSVRAPQVYVLPPPEEEMTKKQVTLTCMVTDFMPEDIYVEWTNNGKTELNYKNTEPVLDSDGSYFMYSKLRVEKKNWVERNSYSCSVVHEGLHNHHTTKSFSRTPGK
notes: also called biologic anti-IgE^4
IC50 (read off the curve) (IgE-Fc [2]): ~7 nM
